Tested on: delta-plasminogen
Sequence (chain, as listed by the source mutant): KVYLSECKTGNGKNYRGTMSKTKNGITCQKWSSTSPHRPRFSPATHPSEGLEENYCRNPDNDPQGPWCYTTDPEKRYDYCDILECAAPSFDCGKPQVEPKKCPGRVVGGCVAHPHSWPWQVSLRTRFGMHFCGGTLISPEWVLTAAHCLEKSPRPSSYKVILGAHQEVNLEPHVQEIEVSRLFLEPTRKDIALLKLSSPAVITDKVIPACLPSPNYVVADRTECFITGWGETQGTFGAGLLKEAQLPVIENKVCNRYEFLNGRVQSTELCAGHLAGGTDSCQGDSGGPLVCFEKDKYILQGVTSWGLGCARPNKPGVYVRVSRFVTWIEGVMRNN

For urokinase, the “conversion of one-chain delta-plasminogen into two-chain delta-plasmin (reduced SDS-PAGE)” value was “delta-plasminogen indeed can be activated by all three plasminogen activators”.

From patent US20100304465
